The values below come from patent US20260116949A1.

The target in the experiment is endogenous TCRs of un-transduced activated human T cells (Untd). Nature of the experiment: flow cytometry, FITC-anti-human TCR Vβ13.1 staining of un-transduced activated human T cells.

For the substance “FITC anti-human TCR Vβ13.1 Antibody (EBIOSCIENCE, …X, THERMO FISHER …)”, the % of cells positive for staining worked out at 3.9%.
